Data on 2 molecules can be found in publication PMC10474468.

For series [1], the target named is Trichomonas vaginalis riboside hydrolase (TvRH), His6 tag removed (Trichomonas vaginalis) (UniProt A2FTT0). Nature of the series: SEC. On the technique in general: Size exclusion chromatography separates by hydrodynamic size, large species first.
Substrate in series [2]: O=c1[nH]c(=O)n([C@@H]2O[C@H](CO)[C@@H](O)[C@H]2O)cc1Cl
Nature of the series: purified protein. Particulars: Ca2+.

Substrate in series [3]: O=c1[nH]c(=O)n([C@@H]2O[C@H](CO)[C@@H](O)[C@H]2O)cc1Br
Nature of the series: purified protein. As to conditions: Ca2+.

Substrate in series [4]: Nc1ccn([C@@H]2O[C@H](CO)[C@@H](O)[C@H]2O)c(=O)n1
Nature of the series: purified protein. As to conditions: Ca2+.

Substrate in series [5]: NC(=O)c1ccc[n+]([C@@H]2O[C@H](CO)[C@@H](O)[C@H]2O)c1
Nature of the series: purified protein. As to conditions: Ca2+ active site (modeled only); pH 6.5; 37.0 °C.

Substrate in series [6]: O=c1ccn([C@@H]2O[C@H](CO)[C@@H](O)[C@H]2O)c(=O)[nH]1
Nature of the series: purified protein. As to conditions: Ca2+ active site (modeled only).

Substrate in series [7]: O=[N+]([O-])c1ccc(O[C@@H]2O[C@H](CO)[C@@H](O)[C@H]2O)cc1
Nature of the series: purified protein. Particulars: Ca2+.

Substrate in series [8]: O=c1[nH]c(=O)n([C@@H]2O[C@H](CO)[C@@H](O)[C@H]2O)cc1F
Nature of the series: purified protein. As to conditions: Ca2+.

The stoichiometry N is a count of units in the complex or per binding partner. For “Trichomonas vaginalis riboside hydrolase (TvRH), His6 tag removed (from UniProt A2FTT0 1-347) (enzyme)”, in series [1], the stoichiometry N was 4.

B1: TvRH (riboside hydrolase, TVAG_092730) (Trichomonas vaginalis G3) (protein)
chain: MSIKCALDCDPGHDDLAMIMLAVYSPKLDVQYISTTHGNQTVNKTYQNARRTLNLIKRADKIPVYRGYSKPLTRESVACPEIHGESGLGGVDWSEIDRTMPRNPALDILGYKDESELRPDDFFKHLHRLVSAAEDKFDIISTGSETNIAQYLLAYPEDAKKIRMTTMAGNFMIVGNIMPFAEFNVLIDPEAISNILQSGVDYTFAAPLDITHTVLVTEKVINDIKAATEPYSPKFTEMIIKLLFFFKDTYRDVFGFIDPPLHDPVAAFHLIAPEWFEHVRCHVDIETKGEYTYGCCCTNLILKKKDPTKIVKPDNATVCLKLKEGGHDAFWNQMITVWGEIAKEIGK
What is called Km is the concentration of substrate that gives half-maximal velocity. For orientation: kcat means the maximal rate divided by the concentration of active sites. The term kcat/Km denotes the second-order rate constant that governs catalysis at low substrate concentration. For the molecule B1, the Michaelis-Menten constant (Km) in series [2] worked out at 11 µM; in series [3], 20 µM; in series [4] it was 33 µM; in series [5], 99.1 µM; in series [6] it was 39 µM; in series [7] it was 13 µM. For the same molecule, the Km in series [8] was determined as 17 µM. The kcat came out at 2.3 ± 0.1 s⁻¹ in series [2]; 2.1 ± 0.1 s⁻¹ in series [3]; 0.19 ± 0.003 s⁻¹ in series [4]; 10.9 ± 0.24 s⁻¹ in series [5]; 9.3 ± 0.27 s⁻¹ in series [6]; 391 ± 2 s⁻¹ in series [7]. Besides, in series [8], the kcat was 12.6 ± 0.6 s⁻¹. Besides, the kcat/Km in series [2] was 210000 M⁻¹ s⁻¹; in series [3], 100000 M⁻¹ s⁻¹; in series [4], 5700 M⁻¹ s⁻¹; in series [5] it was 110000 M⁻¹ s⁻¹; in series [6], 240000 M⁻¹ s⁻¹; in series [7], 3e+07 M⁻¹ s⁻¹. In addition, in series [8], the kcat/Km was 770000 M⁻¹ s⁻¹.
